In patent US20140248636:

B1: NO66 (A116-N641), N-terminally hexa-His tagged, recombinant (protein)
chain: QTPSARLVPASAPPARLVEVPAAPVRVVETSALLCTAQHLAAVQSSGAPATASGPQVDNTGGEPAWDSPLRRVLAELNRIPSSRRRAARLFEWLIAPMPPDHFYRRLWEREAVLVRRQDHTYYQGLFSTADLDSMLRNEEVQFGQHLDAARYINGRRETLNPPGRALPAAAWSLYQAGCSLRLLCPQAFSTTVWQFLAVLQEQFGSMAGSNVYLTPPNSQGFAPHYDDIEAFVLQLEGRKLWRVYRPRVPTEELALTSSPNFSQDDLGEPVLQTVLEPGDLLYFPRGFIHQAECQDGVHSLHLTLSTYQRNTWGDFLEAILPLAVQAAMEENVEFRRGLPRDFMDYMGAQHSDSKDPRRTAFMEKVRVLVARLGHFAPVDAVADQRAKDFIHDSLPPVLTDRERALSVYGLPIRWEAGEPVNVGAQLTTETEVHMLQDGIARLVGEGGHLFLYYTVENSRVYHLEEPKCLEIYPQQADAMELLLGSYPEFVRVGDLPCDSVEDQLSLATTLYDKGLLLTKMPLALN
- extent of peptide hydroxylation by MALDI-TOF (RpL8 209-228 peptide (…)): hydroxylated to ˜85% as tested by MALDI-TOF analyses
- mass increase of the peptide by MALDI-TOF (hydroxylation) (RpL8 209-228 peptide (…)): displayed 16 Da increase in mass

B2: Mina53 (A26-V465), N-terminally hexa-His tagged, recombinant (protein)
chain: AAGGPSALNFDSPSSLFESLISPIKTETFFKEFWEQKPLLIQRDDPALATYYGSLFKLTDLKSLCSRGMYYGRDVNVCRCVNGKKKVLNKDGKAHFLQLRKDFDQKRATIQFHQPQRFKDELWRIQEKLECYFGSLVGSNVYITPAGSQGLPPHYDDVEVFILQLEGEKHWRLYHPTVPLAREYSVEAEERIGRPVHEFMLKPGDLLYFPRGTIHQADTPAGLAHSTHVTISTYQNNSWGDFLLDTISGLVFDTAKEDVELRTGIPRQLLLQVESTTVATRRLSGFLRTLADRLEGTKELLSSDMKKDFIMHRLPPYSAGDGAELSTPGGKLPRLDSVVRLQFKDHIVLTVLPDQDQSDEAQEKMVYIYHSLKNSRETHMMGNEEETEFHGLRFPLSHLDALKQIWNSPAISVKDLKLTTDEEKESLVLSLWTECLIQVV
- extent of peptide hydroxylation by MALDI-TOF (RpL27a31-50 peptide (…)): hydroxylated to ˜95% as tested by MALDI-TOF analyses
- mass increase of the peptide by MALDI-TOF (hydroxylation) (RpL27a31-50 peptide (…)): displayed a 16 Da increase in mass
